# In article PMC11118347 (bioRxiv, 2024):
# Target: the molecule itself
# Experiment: crystal structure
protein,measurement,value
"Human lens fiber membrane intrinsic protein MP20 (construct selected for crystallization) (natural protein, Janelia Fluor 549 NHS-ester labelling on column; membranes incubated with iodoacetamide) MYSFMGGGLFCAWVGTILLVVAMATDHWMQYRLSGSFAHQGLWRYCLGNKCYLQTDSIAYWNATRAFMILSALCAISGIIMGIMAFAHQPTFSRISRPFSAGIMFFSSTLFVVLALAIYTGVTVSFLGRRFGDWRFSWSYILGWVAVLMTFFAGIFYMCAYRVHECRRLSTPR",stoichiometry N,4
